Measurements as given in the DeepSol protein solubility set.

assay: soluble on expression in E. coli; label from the status in PepcDB or PDB records

Soluble on expression in E. coli, not soluble:
MGSDKIHHHHHHMAEKKEFVVGIDLGTTNSVIAWMKPDGTVEVIPNAEGSRVTPSVVAFTKSGEILVGEPAKRQMILNPERTIKSIKRKMGTDYKVRIDDKEYTPQEISAFILKKLKNDAEAYLGGEIKKAVITCPAYFNDAQRQATKEAGIIAGLEVLRIINEPTAAALAYGLDKAGKEEKVLVYDLGGGTFDVSILEIGEGVIEVIATAGNNHLGGDDFDQRLIDWMAEEFKKQHGIDLREDRQALQRLRDAAEKAKIELSTKMETDVSLPFIAVSPSGQPLHLEMRITRSLFESLTRDLVEMTRGPIEQALNDAKLSPQDIDEIILVGGMTRVPMVQRFIKEFFGKEPNKSVNPDEAVAIGAAIQAAILAGTEGAKGRDIVLVDVTPLTLGIEVKGGLFEPIIPRNTKIPVRKSKIFTTVEDGQTEVEIRVYQGERPIARENIFLGSFKLVGIPPAPRGVPQIEVTFDIDSDGIVHVSAKDLGSGKEQSMVVTGRHKLSEDEIKRMIEDAKRYEEQDKRLKEEIELKNRADDLAYSVEKTLKEHGDKIPADLKSRLEDMIRELRDAINRNDIPKVKMLFDDLQKESMKIGEYLYKSATGGETSNQ
MGSDKIHHHHHHMAEQPLIGKTILTTRAAGQSSPFAAQLRAAGAAVIEMPTLEIGPPSSWLPLDEAIAAIADFDWLILASANAVEAVQQRLAAQQKSWSDVPCAIAVVGQKTAQVLAAQGGKADYIPPEFIAESLVEHFPQPVAGQRLLFPRVETGGREQITQALQSQGAIVVEVPAYESRCPSQIPDDALIALRQAHLNLISFTSSKTVRNFCQLMASNLGVDWSARISGVAIASIGPQTSITCQELLGRVEVEAQEYTLDGLLLAIEQWARQTT
MGSDKIHHHHHHMAFKNLKELSFEKSNYIKPKRFAYESNGRLCTWDFIESKDSVSVLLYHKELESFIFVRQFRIPLWYHQMHDKDYVKDDDMGYTIELCSGLVDKKLSLEEIAKEECIEELGYAPKNLEKIGDFYTGFGSGVSKQSFYFVEVDEKDKISSGGGVDDEEIEAVYVKVQDFEKKCKNMIRTPLLDFAYMWFLKEKWGKLKII
MGSDKIHHHHHHMAFRGWKKLPIRIETGEMVEAIAPVIVSASRATDIPAFHAEWFMTRLRAGYVQWCNPFNARQTQYVSFRKTRAVIFWSKNPAPLLPHLSELDAIGINYSFQFTLNDYEAEGLEPYVLPLAKRIETFRRLASHIGPERVVWRFDPLVLTGRLTADMLLERIGRLAEALGGQTRKLVISFADIECYRAVRLRLSRMGAGAREFAPEEMDEFAARLVERNKDWGLELSACAEDSELAGIAKSRCIDGHVLASCFGDDAELMEFLGGSTLFPGDAPVSVALKHQGQRKACGCIVSKDIGVYGTCQHGCRYCYACR
MGSDKIHHHHHHMAGEPRLGRTGPRVSRVGLGLWQFGSPMWGGKALSADVLARGLSIAVEEGINLLDTAEVYGMGSSERMLGEALKRLNAREDFVIVSKVAGFRSTAGDIVKGARGIAGRLSSAPDVILHHWPPPVYSRLCSVVRGLEQAVNEGLASYYGFSNYGEDLLGDALSCTRRLEPVADQILYNLAYRTPEQRLIPLLHQHGMTPIAWSPLAKGALAGFKGEPTRAQAGDPVFRTALEDTGLQEVLESVARRLGASKASVALAWVAYKGAVPIVGWRRPERVREAAAAARLKLSEEDVALLDEASKRYVTLWGSSYSPPGLRRIRLIPGALQRLAIRLWGGI
MGSDKIHHHHHHMAGVTAPLLGLQKKSLREQALSALRTAITSGELEPGRHLVETELSDMLQISRGTLREALRQLEQEGLLSAGPRGRLSVRHLDAKEIRDIYSVRAALESLAARTLCELPDRQHVIGSLRAAIGAMDAAAKGSLEDRIESDLEFHRTLCRLTGNETLLHSWESLEGSIRMSIMFAGLEKGVSNMSVDRHHDIVAAIETGDGSLARKTIREHMDTAADNLVA
MGSDKIHHHHHHMAHPPQIRIPATYLRGGTSKGVFFRLEDLPESCRVPGEARDRLFMRVIGSPDPYAAHIDGMGGATSSTSKCVILSKSSQPGHDVDYLYGQVSIDKPFVDWSGNCGNLSTGAGAFALHAGLVDPARIPEDGICEVRIWQANIGKTIIAHVPVSGGQVQETGDFELDGVTFPAAEIVLEFLDPSDDGEDGGAIFPTGNLVDDLEVPGVGTFKATMINAGIPTVFVNAEEIGYRGTELREEINGDPQQLARFERIRVAGALRMGLIKTPEEAATRQHTPKIAFVAPPRDYRTASGKLVAAGDIDLLVRALSMGKLHHAMMGTAAVAIGTAAAIPGTLVNLAAGGGERSAVRFGHPSGTLRVGAEASQANGEWTVTKAIMSRSARILMEGWVRVPGDAF
MGSDKIHHHHHHMAHTITIVGLGNYGIDDLPLGIYKFLKTQDKVYARTLDHPVIESLQDELTFQSFDHVYEAHDQFEDVYNDIVAQLVEAANEKDIVYAVPGHPRVAETTTVKLLALAKDNTDIDVKVLGGKSFIDDVFEAVNVDPNDGFTLLDATSLQEVTLNVRTHTLITQVYSAMVAANLKITLMERYPDDYPVQIVTGARSDGADNVVTCPLYELDHDENAFNNLTSVFVPKIITSTYLYHDFDFATEVIDTLVDEDKGCPWDKVQTHETLKRYLLEETFELFEAIDNEDDWHMIEELGDILLQVLLHTSIGKKEGYIDIKEVITSLNAKMIRRHPHIFGDANAETIDDLKEIWSKAKDAEGKQPRVKFEKVFAEHFLNLYEKTKDKSFDEASLKQWLEKGESNT
MGSDKIHHHHHHMAIAIDFGTSNTVIARWNPVTQQPETITLPGLSIQQSLNPPLIPSLVYVEDANQAKILIGQQVRDRGLDLKGDTRFFRSFKRGIGADIQGFLPELDGQIVTFEQVGQWFLTEVIQQLAPLEGGLDSLVLTVPVDSFEAYRYWLGQVCQALPVEQVRMLDEPTAAALGYGLADQEILLVVDFGGGTLDLSLVQLNKSAQTNTKPVGFLLKWGNKSLAEESKQKTKTARVLAKAGQNLGGTDIDNWLVDYFTKTQGLAVSPLTTRLAERIKIQLSTQNQASEVYFDDENFESYELELNRDTLESILKEHSFFEQLDDAMANLLQQARRQGIELADINAVLLVGGTVQLPAVQTWVKQYFQPDKIRCEKPFEAIAQGALQLSQGVEIKDFLYHSYGVRYWDRRNQRHSWHSIIKAGQGYPMTQPVELVLGASLENQPSIELILGELGTETGGTEVYFDGDRLITRRLDTGVTSVKPLNDKEGARTIAQLTPPGFPGSDRIKILFQVDEQRFLRITVEDLLTNDTLLENQLVAQLS
MGSDKIHHHHHHMAISERDIEHIFERLRSGVVPERGLEAFAVGIDKQRTEIHRQFQLAANSEGVFKFLRGGYGCGKTFMSRLAILDAQAQGFATSFVVVSDNDLHFYKFDDVYRKVVQELGTSSCPRGALSDIIDRWIARVEDALIAGGADENSDEFDTLVQQRIEEELASLTGGKAPEDMARVLRAIFTFKQKGEIAEASALLSWLAGSENVAATAKKAAGIKGDIASRDALDYLHGILEIVKAAGYKGLVIVIDEVETVLRMRHDSRGKSLNGIRQICDAADRYRGLLWIYTGTPEFFDTKRGVAGLEPLHDRIQFLTLAGFANPRQPQLELKPFDARRLKEVALKLREIFPTANRTGIVNKVTFEFIERLVAKVTAGFKGDVGVVPRQFLRQFVNILDLASENDEFDPMSAEGFEPTDLNEVELLIREGRTYFDEDPADIQGYAAVEF
MGSDKIHHHHHHMAKFKIEIDSETCLGYKECGLCVSACEESIIVPDEKTGKVKVDKTREINCDGLGACLDVCPVGALKITSESGFSCGGHSGNPCPGSAVKSFNRSEQRSEMLQNKETESELLNWPVQLHLLNPNASYFKNADLIIAADCVPFAYPDFHNNLLKGKVLAIACPKLDDTKDYMLKIRQIVEKNNIKNVTVAIMTVPCCSGLYSLVNRALDGLDVNITKKVISLDGKLMD
MGSDKIHHHHHHMAKGSKGFIVSIMGPVVDVKFPEEELPDIYNALEVVNPQTGQKVVLEVEQLIGDGVVRTVAMDSTDGLTKGLEVVDTGAPITAPVGKEVLGRILNVIGEPVDEAGEIKAKERWPIHRPAPELVEQSTEIEILETGIKVIDLLAPFPKGGKIGFFGGAGVGKTVLVMELIRNIAIEHKGFSVFAGVGERTREGNELWLEMQESGVLGNTVLVFGQMNEPPGARFRVALTALTIAEYFRDVEGRDVLLFIDNIFRFVQAGSEVSALLGRMPSAVGYQPTLATDMGELQERITSTRRGSITSVQAIYVPADDITDPAPATTFAHLDATVVLSRRIAELGLYPAVDPLDSSSKILDPAIVGREHYEVARGVQEVLQRYKDLQDIIAILGVEELSPEDKLVVHRARRIQRFLSQPFHVAERFTGRPGRYVPIEETIRGFKEILDGKLDDVPEQAFLMAGNIDEVKERAKEMRS
